Results: US20220265772A1, “USES OF DAN FAMILY BMP ANTAGONISTS FOR INHIBITING OCULAR NEOVASCULARIZATION AND TREATING OCULAR CONDITIONS” (9636137 Canada Inc., priority 2019, published 2022)
Like-named read-outs stand apart in the source and are kept apart here.

Tests used:
mouse choroidal explants = experiment: Choroidal explant sprouting in culture; format: cell-based; conditions: P5 mouse choroidal explants exposed to serum and VEGF
Procedure: FIG. 1 is a panel with pictures, bar graphs, and graphs showing that Dand5 reduces VEGF-mediated sprouting angiogenesis in cultured endothelial cells. FIG. 1A: HUVECs grown in a fibrinogen gel were treated with VEGF to induce tube formation in the presence or absence of Dand5. […] FIG. 1B: HUVECs were plated to confluency and scratched to stimulate a wound in the presence or absence of Dand5. Scale bar, 100 μm. FIG. 1C: Quantification of tube formation in FIG. 1A n=3, *p<0.05, **p<0.01). FIG. 1E: Choroids were isolated from wild-type mice and cultured in vitro in the absence or presence of Dand5. […] FIG. 1F: Quantification of sprouting areas in choroidal sprouts (n=3, ***p<0.0001). […] FIG. 1H: HUVECs were cultured in the presence or absence of Dand5 and analyzed by immunofluorescence using antibodies against phospho-Histone 3 (PH3), a marker of cellular mitosis, and phalloidin and DAPI (nuclei). […] FIG. 1I: Quantification immunofluorescent staining of phospho-histone 3 positive cells. […] FIG. 1K: Quantification of immunofluorescent staining of cleaved caspase 3 (n=2, n.s.).
To evaluate the cellular mechanisms underlying the inhibitory effects of DAND5 on endothelial cells sprouting, we assessed the effects of DAND5 on endothelial cell migration and proliferation. […]
We exposed or not HUVECs to recombinant DAND5 and measured the concentration of free radicals using DCFDA and MitoSoxRed™. […]

[1] = test system: retinal vascular development; format: in vivo, mouse
Procedure: Animals were anaesthetized with isofluorane. A 10 μL Hamilton syringe with a glass-pulled capillary was inserted with a 45° injection angle into the vitreous. When accessing the role of DAND5 developmentally, animals were injected at P1 (DAND5:100 ng; or PBS: 1 μl) and were euthanized at P5 to quantify vascular growth. The DAND5 used for the injection was a human recombinant DAND5/COCO biologically active fragment produced in E. coli and purified by SDS-PAGE (Arg23-Ala189 with an N-terminal Met, predicted 18.2 kDa monomer, R&D systems; 3047-CC-050). During the neovascularization phase of OIR, animals were injected at P12 (2 μL) before sacrifice at P17 for quantification of neovascularization. For adult mice and laser-induced neovascularization, intravitreal injections were performed under a surgical microscope. Mice were anaesthetized with isofluorane. Pupils were dilated using 1% tropicamide. A 33-gauge needle was inserted from the limbus with a 45° injection angle into the vitreous. The direction and location of the needle was monitored through the surgical microscope.
Ocular globes were initially fixed for 15 min in 4% paraformaldehyde (PFA). Retinas or choroids were collected after eyes dissection in PBS and blocked 1 h in PBS 3% BSA 0.1% Triton X-100™. Fixation was prolonged in 1% PFA overnight for choroid extraction or eyes sectioning. Prior to sectioning, eyes were maintained in sucrose gradients (10-30%), cryo-preserved in a matrix gel and sliced in 14 μm sections on a cryostat (Leica™ CM3050S). Staining with either FITC-labeled isolectin GS 1B4 (Life technologies corporation), rhodamine phalloidin (Cedarlane Laboratories), phospho-histone H3 (Abcam), Collagen IV (Abcam) or cleaved caspase-3 (Cell Signaling) antibodies were performed on whole and/or sectioned retinas/choroids. Retinas and choroids were then mounted in fluoromount aqueous medium (Sigma-Aldrich). Quantitative analysis of tufts, vaso-obliterated or vessel areas were performed using imageJ/Swift_NV™ as previously described (1). Neovascular tuft formation was quantified by comparing the number of pixels in the affected areas with the total number of pixels in the retina. The avascular area in the retina was measured in the same way using an anti-DAND5/COCO polyclonal goat IgG antibody (AF3047, R&D systems).
As DAND5 prevents VEGF-induced EC sprouting, proliferation and migration, we evaluated whether it could inhibit retinal vascular development. Newborn mouse pups (P1) received intravitreal injections of recombinant DAND5 (100 ng), and retinas were harvested after 4 days (P5) (FIG. 2A).
Blood vessels constrict in the course of vessel regression and EC retract, leaving behind empty BM sleeves.

HUVECs = experiment: VEGF-induced tube formation (sprouting assay) of HUVECs in 3D fibrin gels; format: cell-based, human; conditions: for VEGF-induced tube formation: HUVECs in fibrin gel, 25 ng/ml VEGF, DAND5 0, 15, 30 or 60 ng/ml
Procedure: Sprouting assays were performed as previously described (2). Briefly, HUVECs (250,000 cells/well in 6-well plates) were resuspended in 300 μl fibrinogen solution (2.5 mg/ml fibrinogen, Sigma-Aldrich) in EBM-2 (Lonza) supplemented with 2% FBS and 50 μg/ml aprotinin (Sigma-Aldrich), and plated on top of a pre-coated fibrin layer (400 μl fibrinogen solution clotted with 1 U thrombin (Sigma-Aldrich) for 20 min at 37° C.). The second layer of fibrin was clotted for 1 hr at 37° C. NHDF cells (250,000 cells/well), in EBM-2 supplemented with 2% FBS and 25 ng/ml VEGF, with or without DAND5 (0, 15, 30 or 60 ng/ml), were then plated on top of the fibrin layers. Cultures were incubated at 37° C., 5% CO2.
To test whether DAND5 affects sprouting angiogenesis, human umbilical vein endothelial cells (HUVECs) were cultured in 3D fibrin gels and tube formation was induced with VEGF as previously described (2).

[2] = 100 ng at P1, P5, compared with PBS-injected eyes

B1: DAND5: human recombinant DAND5/COCO biologically active fragment produced in E. coli, predicted 18.2 kDa monomer, R&D systems 3047-CC-050 (protein)
chain: MRPEPQSPRPQSWAAANQTWALGPGALPPLVPASALGSWKAFLGLQKARQLGMGRLQRGQDEVAAVTLPLNPQEVIQGMCKAVPFVQVFSRPGCSAIRLRNHLCFGHCSSLYIPGSDPTPLVLCNSCMPARKRWAPVVLWCLTGSSASRRRVKISTMLIEGCHCSPKA
growth of choroidal explants (mouse choroidal explants): inhibited the growth of P5 mouse choroidal explants exposed to serum and VEGF | number of vascular branch points ([1]; 100 ng at P1, P5): reduced number of vascular branch points | microvessel density (ratio of vessel area to vascularized area) [1, 2]: pronounced reduction | vessel area (area covered by vessels) [1, 2]: pronounced reduction of vessel area | EC proliferation in retinal vasculature (pH3) ([1]; P1 injection, P5): reduced EC proliferation | empty type IV collagen (ColIV) BM sleeves ([1]; P1 injection, P5): significantly higher numbers of empty type IV collagen (ColIV) BM sleeves | inhibition of retinal neovascularization compared with VEGF inhibitor (mouse Flt1 Fc) ([1]; P1 injection, P5): significantly more pronounced than that of a VEGF inhibitor (mouse Flt1 Fc) | empty type IV collagen (ColIV) BM sleeves ([1]; P1 injection, P5, listed as Dand5): increased | blood vessel development ([1]; intravitreal 100 ng at P1, retinas at P5): dramatic inhibition of blood vessel development | apoptosis in retinal vasculature (CC3) ([1]; mouse, in vivo): no change in apoptosis | necroptosis in retinal vasculature (Rip3) ([1]; mouse, in vivo): no change in apoptosis (FIG. 11D, E) or necroptosis | photoreceptor morphology or apoptosis ([1]; mouse, in vivo): did not affect | retinal pericyte coverage ([1]; mouse, in vivo): did not affect retinal pericyte coverage | VEGF-induced tube formation (HUVECs): efficiently suppressed VEGF-induced tube formation in a dose-dependent manner | VEGF-induced tube formation (HUVECs; listed as Dand5): inhibited tube formation in a dose dependent manner | vascular tube area (HUVECs; quantification of endothelial tubes, increasing concentrations of DAND5): significant reduction in vascular tube area with increasing concentrations
